No end group written: not given here. *: point of attachment. RhodamineB = CCN(CC)c1ccc2c(-c3ccccc3C(=O)*)c3ccc(=[N+](CC)CC)cc-3oc2c1
Columns and labels:
[1] = target: T1, MaturePDGF-β_NterminalPeptide; experiment: fluorescence anisotropy, 20 nM rhodamine PDGF-β N-terminal peptide
T1 construct: an N-terminal G was added and is left out of the numbering; also called PDGF-β peptide
T1 peptide: RhodamineB-GSLGSLTIAEPAMIAE
Procedure: (§1) After the incubation, fluorescence anisotropy was measured, and the resultant curves were fit with the equation f=y0+(ymax−y0)*(Ptot+x+Kd−sqrt((Ptot+x+Kd)\hat{ }2−4*Ptot*x))/(2*Ptot), where y0 is the baseline anisotropy, ymax is the maximum anisotropy, Ptot is the fixed concentration of labeled peptide used, x is the variable concentration of protein used, and Kd is the measured Kd. […] Buffer was 50 mM Tris pH 8.0, 0.005% Tween20.

[2] = target: T2, PDGF-β dimer (recombinant, purified and refolded mature PDGF-β) (Homo sapiens (Human), UniProt P01127 82-190); experiment: fluorescence anisotropy; 100 nM FITC-labeled RPtag large double mutant, unlabeled PDGF-β dimer titrated, 1 h at room temperature
T2 construct: also called mature PDGF-β dimer
T2 sequence (P01127 82-190): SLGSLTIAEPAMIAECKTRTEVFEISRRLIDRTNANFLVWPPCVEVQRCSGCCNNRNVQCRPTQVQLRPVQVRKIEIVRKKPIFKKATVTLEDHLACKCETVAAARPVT
Procedure: After 1 h incubation at room temperature, fluorescence anisotropy was measured, and the resultant curves were fit to a standard binding equation.

RPtag(small) Nd2, Cd4 = target: T3, RPtag(small) Nd2, Cd4 (Thermoanaerobacter tengcongensis); experiment: fluorescence anisotropy, 2 nM rhodamine Nd2Cd4
T3 peptide: RhodamineB-KIPNFIPAELKLITK
Procedure: as §1

B1: RPtag(large) H122L, A253R double mutant (designed binder)
chain: MGSSCHHHHHHSQDPNSSSMKEGKTIGLVISTLNNPFFVTLKNGAEEKAKELGYKIIVEDSQNDSSKELSNVEDLIQQKVDVLLINPVDSDAVVTAIKEANSKNIPVITIDRSANGGDVVSLIASDNVKGGEMAAEFIAKALKGKGNVVELEGIPGASAARDRGKGFDEAIAKYPDIKIVAKQAADFDRSKGLSVMENILQAQPKIDAVFAQNDEMALGAIKAIEAANRQGIIVVGFDGTEDALKAIKEGKMRATIAQQPALMGSLGVEMADKYLK
notes: Unlabeled against the rhodamine peptides; also called RPtag (large) h1221, a253r; double mutant RPtag(large)
[1]
  Kd: 1500 nM
[2]
  Kd: 75 nM
RPtag(small) Nd2, Cd4
  Kd: 3.1 nM

Source: patent US20200102347A1 (AUCTUS BIOLOGIES, published 2020)
